Laboratory results from patent US8921515B2, “Methods and compositions of preparation for proteome analysis” (Case Western Reserve University, priority 2011, dated 2014).
Entries after “also recorded” stand apart in the source; their conditions may differ. Where a name gives a salt, the structure may show the parent alone. Read-outs that look alike come from different tables or passages of the source. Square brackets hold non-standard residues; d marks the D form. Ends that are not written are not given here. Met(O) = CS(=O)CC[C@H](N)C(=O)O

Key:
[1] = test system: OS membrane protein pellet; assay: Protein solubilization efficiencies of solubilizing agents (DC protein assay of supernatant)
Protocol: Bovine retinas obtained from WL Lawson Company (Omaha, Nebr.) were used to prepare the photoreceptor outer segment (OS) by sucrose density ultracentrifugation. All solvents used for bovine OS preparations contained protease inhibitors (1 mM EDTA, 0.2 mM PMSF, 0.7 μg/μL leupeptin, and 0.5 μg/μL pepstatin A) to inhibit protein degradation and 100 μM diethylenetriamine pentaacetic acid (DTPA) to inhibit oxidation.
The solubilized pellet solution was sonicated with a VirSonic 100 ultrasonic cell disrupter (SP Scientific, Gardiner, N.Y.) three times at 4.5 kHz of ultrasonic frequency for 9 seconds with 3-minute intervals between the sonications. The resulting protein extract was centrifuged at 15,000 g for 10 minutes, and the solubilized proteins in the supernatant were quantified using a DC protein assay kit (Bio-Rad, Hercules, Calif.).

porcine trypsin = target: T1, porcine trypsin (Sus scrofa, UniProt P00761); assay: Effect of solubilizing agents on trypsin amidase activity (Ac-Lys-p-nitroaniline hydrolysis, 405 nm); type: biochemical
T1 construct: purchased Promega
T1 sequence (P00761 9-231): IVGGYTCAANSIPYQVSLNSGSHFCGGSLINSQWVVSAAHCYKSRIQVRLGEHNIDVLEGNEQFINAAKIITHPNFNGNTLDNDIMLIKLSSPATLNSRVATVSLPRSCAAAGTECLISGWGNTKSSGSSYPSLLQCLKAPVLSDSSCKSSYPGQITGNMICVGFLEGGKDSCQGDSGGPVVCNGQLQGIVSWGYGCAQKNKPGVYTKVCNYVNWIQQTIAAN
Protocol: To measure the amidase activity of 100 nM trypsin, we tracked the hydrolysis of 2 mM Ac-Lys-p-nitro aniline hydrochloride through absorbance increase at 405 nm over 3 min in 100 mM ABC using an ELISA plate reader (Thermo-Fisher Scientific, Waltham, Mass.).

[2] = cited from earlier work
[3] = pI values of BSA tryptic peptides; type: physicochemical

Molecule | pI [3] | other results
N=C(N)N [Gdn-HCl, guanidine hydrochloride] | – | Protein amount solubilized [1]: 7.3 ± 4.1 μg/10μ OS membrane preparation; protein solubilized from OS membrane protein pellet [1]: 7.3 µg; trypsin activity retained (porcine trypsin; 0.1 M agent): 40%; trypsin activity retained (porcine trypsin; 0.25 M agent): 20%
O=C(O)C(F)(F)C(F)(F)C(F)(F)C(F)(F)C(F)(F)C(F)(F)C(F)(F)F [PFOA, perfluorooctanoic acid] | – | Protein amount solubilized ([1]; OS membrane pellet in 100 mM ABC with agent at the concentration printed in the row (25 mM SDS 0.8% w/v, 25 mM PFOA 1% w/v, 4M urea, 4M Gdn-HCl), mean ± SD, triplicate): 47.4 ± 4.4 μg/10μ OS membrane preparation; protein solubilized from OS membrane protein pellet ([1]; text: 100 mM ABC, 1% PFOA, 1% SDS, urea, Gdn-HCl): 47.4 µg; trypsin activity retained (porcine trypsin; 0.5% surfactant, control without agent = 100%): more than 80%; trypsin activity retained (porcine trypsin; PFOA concentrations up to 0.25%, control without agent = 100%): fully enzymatically activity; also recorded: full activity; pKa ([2]; carboxyl group, at infinite dilution / diluted solution, determined experimentally): 3.8; pKa ([2]; other reports): lower than 1
NC(N)=O [Urea, urea] | – | Protein amount solubilized [1]: 8.1 ± 3.4 μg/10μ OS membrane preparation; protein solubilized from OS membrane protein pellet [1]: 8.1 µg; trypsin activity retained (porcine trypsin; 2 M agent): approximately 50%; trypsin activity retained (porcine trypsin; 4 M agent): ~20%
AEFVEVTK (listed as Homo sapiens) [SEQ ID No: 7, tryptic peptide of BSA] | 4.5 | –
DAFLGSFLYEYSR (listed as Homo sapiens) [SEQ ID No: 13, tryptic peptide of BSA] | 4.4 | –
ECCHGDLLECADDR (listed as Homo sapiens) [SEQ ID No: 17, tryptic peptide of BSA] | 4.1 | –
ETYGDM(o)ADCCEK (ETYGD[Met(O)]ADCCEK; cysteine pairing not given here; listed as Homo sapiens) [SEQ ID No: 20, tryptic peptide of BSA] | 3.9 | –
ETYGDMADCCEK (listed as Homo sapiens) [SEQ ID No: 21, tryptic peptide of BSA] | 3.9 | –
EYEATLEECCAK (listed as Homo sapiens) [SEQ ID No: 18, tryptic peptide of BSA] | 4.1 | –
KQTALVELLK (listed as Homo sapiens) [SEQ ID No: 6, tryptic peptide of BSA] | 8.6 | –
KVPQVSTPTLVEVSR (listed as Homo sapiens) [SEQ ID No:5, tryptic peptide of BSA] | 8.8 | –
LGEYGFQNALIVR (listed as Homo sapiens) [SEQ ID No: 10, tryptic peptide of BSA] | 6.0 | –
LKPDPNTLCDEFK (listed as Homo sapiens) [SEQ ID No: 12, tryptic peptide of BSA] | 4.6 | –
LVNELTEFAK (listed as Homo sapiens) [SEQ ID No: 4, tryptic peptide of BSA] | 4.5 | –
LVTDLTK (listed as Homo sapiens) [SEQ ID No: 1, tryptic peptide of BSA] | 5.8 | –
M(o)PCTEDYLSLILNR ([Met(O)]PCTEDYLSLILNR; listed as Homo sapiens) [SEQ ID No: 14, tryptic peptide of BSA] | 4.4 | –
RHPEYAVSVLLR (listed as Homo sapiens) [SEQ ID No: 9, tryptic peptide of BSA] | 8.8 | –
RHPYFYAPELLYYANK (listed as Homo sapiens) [SEQ ID No: 8, tryptic peptide of BSA] | 8.4 | –
SLHTLFGDELCK (listed as Homo sapiens) [SEQ ID No: 11, tryptic peptide of BSA] | 5.3 | –
TCVADESHAGCEK (listed as Homo sapiens) [SEQ ID No: 19, tryptic peptide of BSA] | 4.7 | –
TVMENFVAFVDK (listed as Homo sapiens) [SEQ ID No: 16, tryptic peptide of BSA] | 4.4 | –
VPQVSTPTLVEVSR (listed as Homo sapiens) [SEQ ID No: 3, tryptic peptide of BSA] | 6.0 | –
YIYEIAR (listed as Homo sapiens) [SEQ ID No: 2, tryptic peptide of BSA] | 6.0 | –
YNGVFQECCQAEDK (listed as Homo sapiens) [SEQ ID No: 15, tryptic peptide of BSA] | 4.1 | –
